# Experimental data: the supplement of paper PMC11246515
# ± gives the standard deviation of the averaged measurements.
# Assay: total protein half-life in vivo (active degradation + dilution); higher = more stable protein
# [1] = E. coli NCM3722 delta-clpP, growth: N-lim chemostat, doubling time 6 h
# [2] = E. coli NCM3722 delta-hslV, growth: N-lim chemostat, doubling time 6 h
# [3] = E. coli NCM3722 delta-lon, growth: N-lim chemostat, doubling time 6 h
# [4] = E. coli NCM3722 delta-smpB, growth: N-lim chemostat, doubling time 6 h
# [5] = wild type E. coli NCM3722, growth: N-lim chemostat, doubling time 6 h
# [6] = wild type E. coli NCM3722, growth: N-lim chemostat, doubling time 12 h
# [7] = wild type E. coli NCM3722, growth: P-lim chemostat, doubling time 6 h
# [8] = wild type E. coli NCM3722, growth: P-lim chemostat, doubling time 12 h
# [9] = E. coli NCM3722 delta-clpP delta-lon delta-hslV, growth: N-lim chemostat, doubling time 6 h
# [10] = wild type E. coli NCM3722, growth: C-lim chemostat, doubling time 3 h
# [11] = wild type E. coli NCM3722, growth: C-lim chemostat, doubling time 6 h
# [12] = wild type E. coli NCM3722, growth: C-lim chemostat, doubling time 12 h
Sequence,total protein half-life in vivo [1] [h],total protein half-life in vivo [2] [h],total protein half-life in vivo [3] [h],total protein half-life in vivo [4] [h],total protein half-life in vivo [5] [h],total protein half-life in vivo [6] [h],total protein half-life in vivo [7] [h],total protein half-life in vivo [8] [h],total protein half-life in vivo [9] [h],total protein half-life in vivo [10] [h],total protein half-life in vivo [11] [h],total protein half-life in vivo [12] [h]
MLDLFADAEPWQEPLAAGAVILRRFAFNAAEQLIRDINDVASQSPFRQMVTPGGYTMSVAMTNCGHLGWTTHRQGYLYSPIDPQTNKPWPAMPQSFHNLCQRAATAAGYPDFQPDACLINRYAPGAKLSLHQDKDEPDLRAPIVSVSLGLPAIFQFGGLKRNDPLKRLLLEHGDVVVWGGESRLFYHGIQPLKAGFHPLTIDCRYNLTFRQAGKKE,4.32,2.76,3.17,3.02 ± 0.09,2.87 ± 0.47,4.66 ± 0.55,3.76 ± 0.13,5.89,–,–,–,–
MTLRTENLTVSYGTDKVLNDVSLSLPTGKITALIGPNGCGKSTLLNCFSRLLMPQSGTVFLGDNPINMLSSRQLARRLSLLPQHHLTPEGITVQELVSYGRNPWLSLWGRLSAEDNARVNVAMNQTRINHLAVRRLTELSGGQRQRAFLAMVLAQNTPVVLLDEPTTYLDINHQVDLMRLMGELRTQGKTVVAVLHDLNQASRYCDQLVVMANGHVMAQGTPEEVMTPGLLRTVFSVEAEIHPEPVSGRPMCLMR,–,–,–,–,–,–,–,3.42,5.53 ± 0.17,–,–,–
MFQDNPLLAQLKQQLHSQTPRAEGVVKATEKGFGFLEVDAQKSYFIPPPQMKKVMHGDRIIAVIHSEKERESAEPEELVEPFLTRFVGKVQGKNDRLAIVPDHPLLKDAIPCRAARGLNHEFKEGDWAVAEMRRHPLKGDRSFYAELTQYITFGDDHFVPWWVTLARHNLEKEAPDGVATEMLDEGLVREDLTALDFVTIDSASTEDMDDALFAKALPDDKLQLIVAIADPTAWIAEGSKLDKAAKIRAFTNYLPGFNIPMLPRELSDDLCSLRANEVRPVLACRMTLSADGTIEDNIEFFAATIESKAKLVYDQVSDWLENTGDWQPESEAIAEQVRLLAQICQRRGEWRHNHALVFKDRPDYRFILGEKGEVLDIVAEPRRIANRIVEEAMIAANICAARVLRDKLGFGIYNVHMGFDPANADALAALLKTHGLHVDAEEVLTLDGFCKLRRELDAQPTGFLDSRIRRFQSFAEISTEPGPHFGLGLEAYATWTSPIRKYGDMINHRLLKAVIKGETATRPQDEITVQMAERRRLNRMAERDVGDWLYARFLKDKAGTDTRFAAEIVDISRGGMRVRLVDNGAIAFIPAPFLHAVRDELVCSQENGTVQIKGETVYKVTDVIDVTIAEVRMETRSIIARPVA,5.31 ± 0.54,4.41 ± 0.31,4.57 ± 0.42,3.92 ± 0.095,4.3 ± 0.15,7.65 ± 0.77,4.66 ± 0.14,8.07 ± 0.19,6.36 ± 1.1,2.74 ± 0.38,5.8 ± 0.41,10 ± 3.6
MKWLCSVGIAVSLALQPALADDLFGNHPLTPEARDAFVTELLKKMTVDEKIGQLRLISVGPDNPKEAIREMIKDGQVGAIFNTVTRQDIRAMQDQVMELSRLKIPLFFAYDVLHGQRTVFPISLGLASSFNLDAVKTVGRVSAYEAADDGLNMTWAPMVDVSRDPRWGRASEGFGEDTYLTSTMGKTMVEAMQGKSPADRYSVMTSVKHFAAYGAVEGGKEYNTVDMSPQRLFNDYMPPYKAGLDAGSGAVMVALNSLNGTPATSDSWLLKDVLRDQWGFKGITVSDHGAIKELIKHGTAADPEDAVRVALKSGINMSMSDEYYSKYLPGLIKSGKVTMAELDDAARHVLNVKYDMGLFNDPYSHLGPKESDPVDTNAESRLHRKEAREVARESLVLLKNRLETLPLKKSATIAVVGPLADSKRDVMGSWSAAGVADQSVTVLTGIKNAVGENGKVLYAKGANVTSDKGIIDFLNQYEEAVKVDPRSPQEMIDEAVQTAKQSDVVVAVVGEAQGMAHEASSRTDITIPQSQRDLIAALKATGKPLVLVLMNGRPLALVKEDQQADAILETWFAGTEGGNAIADVLFGDYNPSGKLPMSFPRSVGQIPVYYSHLNTGRPYNADKPNKYTSRYFDEANGALYPFGYGLSYTTFTVSDVKLSAPTMKRDGKVTASVQVTNTGKREGATVVQMYLQDVTASMSRPVKQLKGFEKITLKPGETQTVSFPIDIEALKFWNQQMKYDAEPGKFNVFIGTDSARVKKGEFELL,6.82 ± 0.92,6.51 ± 0.073,6.84 ± 0.088,5.91 ± 0.13,6.21 ± 0.43,13.9 ± 0.67,6.21 ± 0.027,14.5 ± 1.1,6.82 ± 0.31,3.14 ± 0.092,6.17 ± 0.12,14.2 ± 1.2
